Results taken from US20090041763A1 (UNIVERSITY OF ULSAN FOUNDATION FOR INDUSTRY COOPERATION, published 2009).

Biological target: T1, 4-1BB-GST fusion protein (human 4-1BB fused to glutathione-S-transferase, expressed in E. coli) (human, UniProt Q07011 24-186)
T1 construct: The order of the parts follows the printed name 4-1BB-GST; not shown: glutathione-S-transferase (GST) from the pGEX3 vector (Pharmacia)
Assay: ELISA, transfectant culture supernatant on 4-1BB-GST antigen; reference is 293 EBNA cultured supernatant
Method: The completely humanized sequence to constant region was subcloned to pcDNA, a eukaryote expressing vectors, transfected into 293EBNA cells and serial analyses i.e., ELISA and western blotting analysis were performed using by the cell medium. 4-1BB-GST was used as an antigen for ELISA and each 50 numbers of transfectant medium was used therein.

fold over negative control (ELISA): ~15 times
B1: completely humanized antibody HBBK4-75 (H2L2) (antibody, V domains shown)
VH: QVQLQQSGAEVIKPGASVKLSCKASGYTFSSYWMHWVRQAPGQGLEWIGEINPGNGHTNYNEKFKSRATLTGDTSTSTVYMELSSLRSEDTAVYYCARSFTTARAFAYWGQGTLVTVSS
VL: DIVMTQSPAFLSVTPGEKVTITCRASQTISDYLHWYQQKPDQAPKLLIKYASQSISGIPSRFSGSGSGTDFTFTISSLEAEDAATYYCQDGHSFPPTFGQGTKLEIKT
notes: the VH is the same in both; also called clone 75; HBBK4-75/pcDNA
